Source: patent US20210139559A1

Target: human VEGF165 ligand (human) (UniProt P15692)
Assay: serial dilution mixed with 50 pM human VEGF165 in solution, unbound VEGF165 measured by ELISA

human VEGF165 ligand (human), sequence (P15692 other isoform, or with tags, fused parts or gaps limits assumed): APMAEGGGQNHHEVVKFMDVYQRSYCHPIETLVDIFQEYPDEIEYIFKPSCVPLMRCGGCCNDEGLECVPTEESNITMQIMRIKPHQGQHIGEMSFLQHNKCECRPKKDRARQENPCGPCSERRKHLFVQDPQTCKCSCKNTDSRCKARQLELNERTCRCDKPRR

- IC50: 9.82 pM
Substance: Aflibercept (Fc fusion)
